{"source": "patent US5185323A", "about": "“Suppression of megakaryocytopoiesis employing platelet factor 4 antimaturation factor” (Temple University, priority 1988, dated 1993)", "molecules": {"B1": {"name": "platelet factor 4 (protein, UniProt P02776 32-101, looked up)", "Platelet factor 4": "EAEEDGDLQCLCVKTTSQVRPRHITSLEVIKAGPHCPTAQLIATLKNGRKICLDLQAPLYKKIIKKLLES", "notes": "Megakaryocyte/platelet-specific α-granule protein purified from outdated human platelets by heparin-agarose chromatography, >95% pure"}}, "type_in_all_cases": "cell-based", "key": {"[1]": {"system": "human megakaryocyte progenitor cells", "assay": "Megakaryocyte colony formation in co-culture with autologous T lymphocyte subsets", "excerpt": "(§1) Megakaryocyte colonies were cloned in plasma clot cultures as previously described (e.g., Blood 61: 384-9, 1983). The cell population cultured consisted of either unseparated high density marrow mononuclear cells (MNC), or MNC depleted of adherent monocytemacrophages (MO) and T lymphocytes using methods previously reported (e.g., J. Immunol. 2915-2925, 1987). To provide essential growth factors, all cultures were supplemented with normal human AB serum (30% v/v) derived from the platelet-poor plasma of a single donor.\n(§2) Megakaryocyte colonies were enumerated by indirect immunofluorescence assay utilizing a rabbit anti-human platelet glycoprotein antiserum as a megakaryocyte probe (ibid.). […] A cluster of three or more intensely fluorescent cells was counted as one colony. Unless otherwise stated, all data are reported as the mean± S.D. of colonies enumerated.\nSince the majority of marrow T lymphocytes are of the suppressor type, and PF4 is described in the prior art as inactivating these cells, the results obtained in Examples IA and IB were unexpected. In fact, it was anticipated that colony formation might be increased because of unopposed T helper activity. Putative progenitor cell-T cell-PF4 interactions were accordingly studied. Control target cells, depleted of adherent monocytes and T lymphocytes were cloned in plasma clots under standard conditions (Table 3). Aliquots of these target cells were also cloned in the presence of either CD4^+ helper, or CD8^+ suppressor T cells alone, or T effector cells plus PF4 at two different concentrations, 2.5 and 25 μg/ml."}, "[2]": {"system": "human megakaryocyte progenitor cells", "assay": "Megakaryocyte colony formation in plasma clot culture, MNC depleted of adherent monocyte-macrophages and T lymphocytes", "conditions": "PF4 25 μg/ml; four experiments (FIG. 3)", "excerpt": "FIG. 3 graphically illustrates the effect of highly purified platelet factor 4 (PF4) on normal human megakaryocyte colony formation in vitro in the absence of accessory marrow immunocytes. Isolated bone marrow mononuclear cells (MNC) were depleted of adherent monocyte-macrophages and lymphocytes and treated as detailed in the Examples. Each line represents the result of a single experiment performed in quadruplicate culture plates. p values in comparison to control are indicated for each experiment.\nas §1\nas §2, with “enumerated. […]” for “enumerated.”"}, "[3]": {"system": "normal human erythroid colony forming units (CFU-E)", "assay": "Erythroid colony formation (CFU-E) in plasma clot culture (specificity assay)", "conditions": "concentrations of PF4 which consistently inhibited megakaryocyte colony formation; FIG. 4", "excerpt": "FIG. 4 graphically illustrates the effect of highly purified platelet factor 4 (PF4) on clonogenicity of normal human erythroid colony forming units (CFU-E) in plasma clot culture in the absence of accessory marrow immunocytes. Isolated bone marrow mononuclear cells (MNC) were depleted of adherent monocyte-macrophages and lymphocytes, as detailed in the Examples. After seven days in culture, plates were harvested and fixed and CFU-E detected by benzidine staining. Results of three separate experiments, each performed in quadruplicate culture plates, are shown. The effect of purified protein on inhibition of erythroid colony formation was tested."}, "[4]": {"system": "normal human megakaryocyte progenitor cells", "assay": "Megakaryocyte colony formation in plasma clot culture, unseparated marrow MNC (proliferation assay)", "conditions": "control ~11 colonies", "protocol": "FIG. 1 graphically illustrates the effect of highly purified platelet factor 4 (PF4) on clonogenicity of normal human megakaryocyte progenitor cells in plasma clot culture. Bone marrow mononuclear cells (MNC) were isolated by density gradient sedimentation and then suspended in the appropriate culture medium, to which was added PF4 in the amounts indicated. The cell suspensions were plated, and cultured for twelve days at 37° C. in a humidified environment containing 5% CO2, and resulting megakaryocyte colonies were then enumerated in situ with an indirect immunofluorescence assay using a polyspecific antiplatelet glycoprotein antiserum as probe. Aggregate results (mean±S.D.) of five separate experiments are shown. Numbers at top of bars indicate p value in comparison to control (CONT.).\nMegakaryocyte colonies were cloned in plasma clot cultures as previously described (e.g., Blood 61: 384-9, 1983). […]\nMegakaryocyte colonies were enumerated by indirect immunofluorescence assay utilizing a rabbit anti-human platelet glycoprotein antiserum as a megakaryocyte probe (ibid.). […] A cluster of three or more intensely fluorescent cells was counted as one colony. […]\nTo determine if PF4 could modify megakaryocyte colony formation in vitro, a screen assay was performed by adding various amounts of pure protein to unseparated marrow MNC. […] In the presence of 2.5 μg/ml of PF4, ~7 colonies were counted. […]"}}, "data": [{"molecule": "B1", "values": [{"measurement": "dependence of colony suppressive effect on T lymphocytes", "setting": "[1]", "value": "indifferent to the presence of T lymphocytes"}, {"measurement": "effect on colony formation in presence of CD4+ (helper) cells", "setting": "[1]; PF4 2.5 μg/ml", "value": "unchanged"}, {"measurement": "megakaryocyte colonies enumerated (mean ± SEM)", "setting": "[1]; Study 1, C/T4 2:1 + PF4 2.5 μg/ml, control 7 ± 2, C/T4 alone 11 ± 0", "value": "8 ± 1", "unit": "colonies"}, {"measurement": "megakaryocyte colonies enumerated (mean ± SEM)", "setting": "[1]; Study 1, C/T8 2:1 + PF4 2.5 μg/ml, control 7 ± 2, C/T8 alone 6 ± 1", "value": "18 ± 2", "unit": "colonies"}, {"measurement": "megakaryocyte colonies enumerated (mean ± SEM)", "setting": "[1]; Study 2, C/T4 2:1 + PF4 2.5 μg/ml, control 4 ± 1, C/T4 alone 3 ± 1", "value": "5 ± 1", "unit": "colonies"}, {"measurement": "megakaryocyte colonies enumerated (mean ± SEM)", "setting": "[1]; Study 3, C/T8 2:1 + PF4 2.5 μg/ml, control 11 ± 3", "value": "7 ± 2", "unit": "colonies"}, {"measurement": "megakaryocyte colonies enumerated (mean ± SEM)", "setting": "[1]; Study 3, C/T8 2:1 + PF4 25 μg/ml, control 11 ± 3, p < .05", "value": "1 ± 0", "unit": "colonies"}, {"measurement": "megakaryocyte colonies enumerated (mean ± SEM)", "setting": "[1]; Study 4, C/T4 2:1 + PF4 2.5 μg/ml, control 116 ± 6, C/T4 alone 141 ± 22", "value": "122 ± 29", "unit": "colonies"}, {"measurement": "megakaryocyte colonies enumerated (mean ± SEM)", "setting": "[1]; Study 4, C/T4 2:1 + PF4 25 μg/ml, control 116 ± 6, C/T4 alone 141 ± 22, p < .05", "value": "8 ± 1", "unit": "colonies"}, {"measurement": "megakaryocyte colonies enumerated (mean ± SEM)", "setting": "[1]; Study 4, C/T8 2:1 + PF4 2.5 μg/ml, control 116 ± 6, C/T8 alone 163 ± 13, p < .05", "value": "87 ± 15", "unit": "colonies"}, {"measurement": "megakaryocyte colonies enumerated (mean ± SEM)", "setting": "[1]; Study 4, C/T8 2:1 + PF4 25 μg/ml, control 116 ± 6, C/T8 alone 163 ± 13, p < .05", "value": "13 ± 2", "unit": "colonies"}, {"measurement": "megakaryocyte colonies enumerated (mean ± SEM)", "setting": "[1]; Study 5, C/T4 2:1 + PF4 25 μg/ml, control 33 ± 6, C/T4 alone 39 ± 4, p < .05", "value": "3 ± 1", "unit": "colonies"}, {"measurement": "megakaryocyte colonies enumerated (mean ± SEM)", "setting": "[1]; Study 5, C/T8 2:1 + PF4 2.5 μg/ml, control 33 ± 6", "value": "33 ± 4", "unit": "colonies"}, {"measurement": "megakaryocyte colonies enumerated (mean ± SEM)", "setting": "[1]; Study 5, C/T8 2:1 + PF4 25 μg/ml, control 33 ± 6, p < .05", "value": "3 ± 1", "unit": "colonies"}, {"measurement": "effect on colony formation in presence of T cells", "setting": "[1]; high concentration of PF4", "value": "highly significant decrease in colony formation"}, {"measurement": "effect on megakaryocyte colony formation", "setting": "[2]", "value": "greatly inhibited in each of the experiments"}, {"measurement": "mean inhibition of megakaryocyte colony formation", "setting": "[2]", "value": "~ 78%"}, {"measurement": "inhibition of erythroid colony formation units (CFU-E)", "setting": "[3]", "value": "no inhibition"}, {"measurement": "megakaryocyte colonies enumerated", "setting": "[4]; PF4 2.5 μg/ml, not significant (p>0.05), aggregate of five experiments", "value": "~ 7 colonies per 2×105 MNC plated"}, {"measurement": "megakaryocyte colonies enumerated", "setting": "[4]; PF4 25 μg/ml, p<0.007, aggregate of five experiments", "value": "five"}]}]}
